These results are taken from article PMC4333827.

The target of experiment [1] is C-terminal helical domain-deleted (ΔH-domain) form of CoMsrA (residues 1-144) (Clostridium oremlandii) (UniProt A8MI53). Kind of experiment: SEC; gel filtration on Superdex S75 16/60 at the final purification step; 10 mM Tris-HCl pH 8.0, 100 mM NaCl.
Experiment [2] shares this target. The experiment can be described thus: native gel or EMSA; native-PAGE; 0.2 mg/ml protein in 10 mM Tris-HCl pH 8.0, 100 mM NaCl; without and with 10 mM DTT. On the technique in general: In EMSA bound probe runs differently from free probe, usually more slowly.
Experiment [3] has the same target. Kind of experiment: SEC-MALS; SEC-MALLS; WTC-015S5 column, 20 mM Tris-HCl pH 8.0, 100 mM NaCl, 298 K, 0.5 ml/min; 2.5 mg/ml full-length, 1.5 mg/ml ΔH-domain. On the technique in general: Size exclusion chromatography separates by hydrodynamic size, large species first.
Experiment [4] has the same target. The experiment can be described thus: SEC; gel filtration on Superdex S75 16/60 at the final purification step; 10 mM Tris-HCl pH 8.0, 100 mM NaCl. The source holds these as a separate data set.

As to “C-terminal helical domain-deleted (ΔH-domain) form of CoMsrA (residues 1-144) (from UniProt A8MI53 1-144) (domain or fragment)”, the stoichiometry N in experiment [1] is 2; in experiment [2] it was 2; in experiment [3], 2; in experiment [4], 4.

The stoichiometry N is the number of molecules, sites or subunits per partner or assembly.
